± gives the standard deviation of the averaged measurements.
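Note: ATP exposure 15 min at 22 °C before imaging.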

The subject of the series is ATP. Put plainly: switch fluorescence ratio, 500 uM ATP over buffer (Cy3 cluster intensity, sum of 5 cycles each) (fold (ratio)); higher = stronger signal-on switching upon ATP binding; sequences stand for … in TCGTCGGCAGCGTCAGATGTGTATAAGAGACAGTTTTTTTTTTTTTTTTTTTTTTTTT…TC. To be noted: aptamer strand: ATP DNA aptamer (quencher-CACCTGGGGGAGTATTGCGGAGGAAGG + anchor), 100 nM annealed; ATP concentration: 500 uM. A digest of the protocol:
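For every switch-domain sequence, the fluorescence ratio is the mean of per-cluster values, each being summed target-cycle Cy3 intensity over summed buffer-cycle Cy3 intensity. Clusters outside 100-1000 RFU were excluded. On a modified Illumina MiSeq flow-cell, the Cy3-labelled switching-strand clusters were annealed to 100 nM quencher-labelled ATP aptamer, imaged in selection buffer and then after 15 min with 500 uM ATP at 22 °C. Five such cycles were run, with NaOH stripping and re-annealing between them.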
In the case of GTAGTGACGT, the switch fluorescence ratio was 0.975 ± 0.044. For the sequence GCTTGAATTT, the switch fluorescence ratio came out at 0.984 ± 0.02. Consider TTTATTAGGG, for which the switch fluorescence ratio was 0.975 ± 0.021. As to TGGGGAGAAG, the switch fluorescence ratio was 0.994 ± 0.013. For GAATTAAAGT, the switch fluorescence ratio came to 0.9823 ± 0.0041. With GTTGCTACTG the figure was 1.05 ± 0.041.

Take CTAGTTAAGG: the switch fluorescence ratio was 1.011 ± 0.0048. As to CGGGAAGTGG, the switch fluorescence ratio came to 0.996 ± 0.03. Regarding TGGGTACGTC, the switch fluorescence ratio amounted to 0.998 ± 0.026. ATGGTTCAAC: the switch fluorescence ratio amounted to 1.003 ± 0.01. Take TGTGGTAGCC: the switch fluorescence ratio is 1.022 ± 0.0018. For the sequence TTCTGGGTCT, the switch fluorescence ratio stood at 0.9833 ± 0.0042. Consider GAGGGGCGTG, for which the switch fluorescence ratio was found to be 1 ± 0.022. With CGGGGATAAG, the switch fluorescence ratio was determined as 0.981 ± 0.011.

In the case of GTTATGTGGT, the switch fluorescence ratio amounted to 0.975 ± 0.0099. With CTTGACATA the figure was 1.03 ± 0.011. As for TATGGGCCTA, the switch fluorescence ratio turned out to be 0.971 ± 0.053. As for CGGAAGCTTT, the switch fluorescence ratio was determined as 1.04 ± 0.021. Regarding ATACCATCGG, the switch fluorescence ratio stood at 0.981 ± 0.024. On to TCACTTTGTG, for which the switch fluorescence ratio came out at 1.01 ± 0.043. For the sequence GGGGGGCTCG, the switch fluorescence ratio stood at 0.973 ± 0.064. Consider AGTTGTCTCG, for which the switch fluorescence ratio was determined as 1.01 ± 0.058. As for AGTTCAGTAT, the switch fluorescence ratio stood at 0.983 ± 0.019. GGAGACGATA: the switch fluorescence ratio came to 1.04 ± 0.0032. Turning to AAATTTTTAC, the switch fluorescence ratio was found to be 1.02 ± 0.027. Take GGGGTCACGG: the switch fluorescence ratio is 1.006 ± 0.0027. With TTCCAGGGGG the figure was 1.08 ± 0.089. For AGGCCCTAGG, the switch fluorescence ratio came to 1.046 ± 0.0036. For GGGATAAGCC the value was 1 ± 0.012. Regarding CGAGCAGTGG, the switch fluorescence ratio was found to be 1.1 ± 0.034. In the case of GGGATATCAT, the switch fluorescence ratio turned out to be 0.9903 ± 0.0048. As to AGCGAGGGAG, the switch fluorescence ratio was 1.005 ± 0.0059. Consider GGGGCATGTA, for which the switch fluorescence ratio worked out at 1 ± 0.019. For TCGTACTGGT, the switch fluorescence ratio is 0.99 ± 0.068.

As to GGCTCATAGT, the switch fluorescence ratio turned out to be 0.996 ± 0.017. As to GTGCCGGGGC, the switch fluorescence ratio turned out to be 1.08 ± 0.11. With AATGAATTCG the figure was 1 ± 0.031; with GAGTGGGGTA, 1 ± 0.011. In the case of TAATGGGGTT, the switch fluorescence ratio turned out to be 1 ± 0.024. For GTTTAGGATT, the switch fluorescence ratio came out at 1.21 ± 0.33. For TCGTGTTCTT, the switch fluorescence ratio was found to be 0.95 ± 0.028. Consider GTTGGAGGAA, for which the switch fluorescence ratio stood at 0.976 ± 0.0098.

With AGGTACTAGG, the switch fluorescence ratio is 1.036 ± 0.0041.

As for GATGGCGGGC, the switch fluorescence ratio worked out at 1.01 ± 0.013. With TGGGGAACAC the figure was 0.995 ± 0.043; with CTAATCGGTC, 0.874 ± 0.029. As to GGGAGCATCG, the switch fluorescence ratio was 0.9709 ± 0.0055. With CATGTTTCTG, the switch fluorescence ratio turned out to be 0.9927 ± 0.0078. For TATAACGCGC the value was 1.11 ± 0.061; for ACGACTGGGG, 1.02 ± 0.03. Regarding CATAGGATGG, the switch fluorescence ratio came to 0.947 ± 0.025. On to AACGATTTTG, for which the switch fluorescence ratio was 1.03 ± 0.016. In the case of CAGTGTCTGC, the switch fluorescence ratio turned out to be 0.9726 ± 0.0016. Take TTTAAGAGTA: the switch fluorescence ratio is 1 ± 0.067. Regarding TTACTGGAG, the switch fluorescence ratio turned out to be 1.02 ± 0.06.

For the sequence GCTAAGCCTG, the switch fluorescence ratio was determined as 1.03 ± 0.017. Consider ACGGGAATTG, for which the switch fluorescence ratio is 1.04 ± 0.019.

With GCATTTTACA, the switch fluorescence ratio was 1 ± 0.013. With TTTGCATTGT the figure was 1.03 ± 0.035; with GTTATATAAC, 1.03 ± 0.058.

Consider CACTGGGGGT, for which the switch fluorescence ratio turned out to be 1.03 ± 0.019. For GTGACGGGGT the value was 1.01 ± 0.022; for AAGGGGGCTT, 0.9943 ± 0.0025; for CGTACTTCCG, 1.019 ± 0.0053. For CAATACTAAC the value was 1.32 ± 0.037. Consider AGTATGTTTC, for which the switch fluorescence ratio was 1 ± 0.025. As for TTTTGTTTTG, the switch fluorescence ratio stood at 1 ± 0.043. Consider TCCGGGTTGG, for which the switch fluorescence ratio was found to be 1.03 ± 0.013.

GCGTTGTGGC: the switch fluorescence ratio stood at 1.01 ± 0.05. For GCGGTTTGAC the value was 1.03 ± 0.018; for TAAAGGCAAG, 1.02 ± 0.018. With GCAGGGGGCA, the switch fluorescence ratio is 1.024 ± 0.01. For AGGGATGAGA the value was 0.9965 ± 0.0024; for ACCATACTGT, 1.33 ± 0.055. With GGGTCTCGTT, the switch fluorescence ratio amounted to 1.01 ± 0.013.

Turning to TTAGAGTCTG, the switch fluorescence ratio stood at 1.005 ± 0.01. Consider GGGGTCGACG, for which the switch fluorescence ratio amounted to 1.033 ± 0.0092. Take GGTTGAGCTC: the switch fluorescence ratio turned out to be 0.973 ± 0.063. With TAAAGCGAGC the figure was 1.03 ± 0.023.

The values are drawn from the supplement of paper PMC10126150.
